Measured values reported in patent publication US20250215083A1 (JIANGSU HENGRUI PHARMACEUTICALS, published 2025).
No end group written: not given here.

Key:
human GPRC5D = human GPRC5D (human, UniProt Q9NZD1 1-345); test: cell-based or functional assay
[1] = molecular target: T1, N-terminal peptide of human GPRC5D (human, biotinylated; made with and without intramolecular disulfide bonds); test: ELISA, biotinylated peptide on streptavidin
T1 construct: synthesized by GenScript; captured on streptavidin; also called amino-terminal peptide
T1 peptide: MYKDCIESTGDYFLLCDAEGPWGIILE
Source text: (§1) To determine the epitope of GPRC5D to which the GPRC5D/CD3 bispecific antibodies of the present disclosure bind, 4 extracellular domain peptides of human GPRC5D were synthesized, including an amino-terminal peptide (N-terminal peptide), an E2 peptide, an E3 peptide, and an E4 peptide (synthesized by GenScript). The peptides were biotinylated and made into two forms: one lacked intramolecular disulfide bonds and the other included intramolecular disulfide bonds. An Elisa plate (Corning 3590) was coated with streptavidin (sigma, SA101), left to stand at 37° C. for 2 h, and then washed. The non-specific binding sites were blocked with PBS containing 5% skim milk, and the plate was left to stand at 37° C. for 2 h and then washed. The peptides, diluted in PBS containing 1% BSA, were added at 100 μL/well, and the plate was left to stand at 37° C. for 1 h and then washed. Subsequently, the GPRC5D/CD3 antibodies, diluted in PBS containing 1% BSA to 0.003 nM-300 nM, were added at 100 μL/well, and the plate was left to stand at 37° C. for 1 h and then washed. […] TMB (KPL, 5120-0077) was added at 100 μL/well. After 5 min of color development, 1 M H₂SO₄ was added to stop the reaction, and the OD₄₅₀ was measured.

human GIPR = molecular target: T2, human GIPR (human, UniProt P48546 22-466); test: FACS, CHOK1-human GIPR cells
T2 construct: on CHOK1-human GIPR cells
T2 sequence: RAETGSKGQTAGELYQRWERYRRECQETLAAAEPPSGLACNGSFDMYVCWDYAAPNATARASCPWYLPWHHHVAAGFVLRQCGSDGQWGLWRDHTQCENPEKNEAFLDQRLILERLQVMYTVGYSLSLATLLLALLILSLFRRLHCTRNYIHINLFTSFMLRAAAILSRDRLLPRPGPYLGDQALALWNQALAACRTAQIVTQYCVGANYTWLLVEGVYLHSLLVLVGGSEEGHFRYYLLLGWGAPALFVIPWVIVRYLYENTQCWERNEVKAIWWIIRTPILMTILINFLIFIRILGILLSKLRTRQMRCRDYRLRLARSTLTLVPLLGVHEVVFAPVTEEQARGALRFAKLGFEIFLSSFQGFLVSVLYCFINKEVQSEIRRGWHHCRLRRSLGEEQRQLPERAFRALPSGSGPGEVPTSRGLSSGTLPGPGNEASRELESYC
Source text: (§2) To determine whether the GPRC5D/CD3 bispecific antibodies of the present disclosure cross-bind to the GPCRA and GPCRB family members, a flow cytometry assay was used in this test example to measure the capacity of the GPRC5D/CD3 bispecific antibodies to bind to CHOK1-human CCR8 cells expressing CCR8 (the GPCR A family) (constructed with reference to Example 2) and CHOK1-human GIPR cells expressing human GIPR (the GPCR B family) (constructed with reference to Example 2). The specific procedure was as follows: The cells described above were cultured in DMEF/12K culture medium containing 10% FBS, incubated in a 37° C., 5% CO₂ incubator for 2 days, and added to a cell plate at 1×10⁵ cells/well. The plate was centrifuged at 300 g for 5 min and washed once with 1% BSA. The antibodies were serially diluted to 8 concentrations and added to the cell plate at 100 μL/well. The plate was incubated at 4° C. for 1 h and washed once with 1% BSA. […] The plate was washed three times with 1% BSA, PBS was added at 100 μL/well, and plate reading was performed.

human CCR8 = molecular target: T3, human CCR8 (human, UniProt P51685 1-355); test: FACS, CHOK1-human CCR8 cells
T3 construct: on CHOK1-human CCR8 cells
Source text: as §2

[2] = molecular target: T4, E3 peptide of human GPRC5D (human, biotinylated; made with and without intramolecular disulfide bonds); test: peptide ELISA; note: - indicates no detectable binding
T4 peptide: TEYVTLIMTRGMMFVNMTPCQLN
Source text: as §1

[3] = molecular target: T5, E4 peptide of human GPRC5D (human, also: biotinylated, site not given here, made with and without intramolecular disulfide bonds); test: as above
T5 peptide: RGNPQFQRQPQWDDC
Source text: as §1

[4] = molecular target: T6, E2 peptide of human GPRC5D (human, also: biotinylated, site not given here, made with and without intramolecular disulfide bonds); test: as above
T6 peptide: NQQTAPVRYC
Source text: as §1

B1: F4-0G4S-1 (bispecific antibody)
heavy 1: not shown
light 1: not shown
heavy 2: EVQLVQSGAEVKKPGASVKVSCKVSGYTFTDYPIHWMRQAPGQGLEWMGYVFPRDGSTKYNEKFRVRVTWTADKSTSTVYMELSSLRSEDTAVYYCSRELTAYWGQGTTVTVSSASTKGPSVFPLAPSSKSTSGGTAALGCLVKDYFPEPVTVSWNSGALTSGVHTFPAVLQSSGLYSLSSVVTVPSSSLGTQTYICNVNHKPSNTKVDKKVEPKSCDKTHTCPPCPAPEAAGGPSVFLFPPKPKDTLMISRTPEVTCVVVDVSHEDPEVKFNWYVDGVEVHNAKTKPREEQYNSTYRVVSVLTVLHQDWLNGKEYKCKVSNKALPAPIEKTISKAKGQPREPQVCTLPPSRDELTKNQVSLSCAVKGFYPSDIAVEWESNGQPENNYKTTPPVLDSDGSFFLVSKLTVDKSRWQQGNVFSCSVMHEALHNHYTQKSLSLSPGK
light 2: DVVLTQSPLSLPVTLGQPASISCKSSQSLLHSSGKTYLNWLLQRPGQSPRRLIYLVSKLDSGVPDRFSGSGSGTDFTLKISRVEAEDVGVYYCAQGTHFPRTFGGGTKVEIKRTVAAPSVFIFPPSDEQLKSGTASVVCLLNNFYPREAKVQWKVDNALQSGNSQESVTEQDSKDSTYSLSSTLTLSKADYEKHKVYACEVTHQGLSSPVTKSFNRGEC
notes: formula 4-0G4S
For B1, the “EC50 ratio (relative to JNJ-64407564), cytotoxic activity against NCI-H929” value (human GPRC5D) was 0.09, the “Lysis rate %, cytotoxic activity against NCI-H929” value (human GPRC5D) was 136% and the EC50 [1] was 0.597 nM. B1: no binding (human GIPR); no binding (human CCR8); no binding (tested: 0.003 nM-300 nM) [2]. B1: no binding (tested: 0.003 nM-300 nM) [3]; no binding (tested: 0.003 nM-300 nM) [4].

B2: F4-6 (bispecific antibody)
heavy 1: not shown
light 1: not shown
heavy 2: EVQLVQSGAEVKKPGASVKVSCKVSGYTFTDYPIHWMRQAPGQGLEWMGYVFPRDGSTKYNEKFRVRVTWTADKSTSTVYMELSSLRSEDTAVYYCSRELTAYWGQGTTVTVSSASTKGPSVFPLAPSSKSTSGGTAALGCLVKDYFPEPVTVSWNSGALTSGVHTFPAVLQSSGLYSLSSVVTVPSSSLGTQTYICNVNHKPSNTKVDKKVEPKSCDKTHTCPPCPAPEAAGGPSVFLFPPKPKDTLMISRTPEVTCVVVDVSHEDPEVKFNWYVDGVEVHNAKTKPREEQYNSTYRVVSVLTVLHQDWLNGKEYKCKVSNKALPAPIEKTISKAKGQPREPQVCTLPPSRDELTKNQVSLSCAVKGFYPSDIAVEWESNGQPENNYKTTPPVLDSDGSFFLVSKLTVDKSRWQQGNVFSCSVMHEALHNHYTQKSLSLSPGK
light 2: DVVLTQSPLSLPVTLGQPASISCKSSQSLLHSSGKTYLNWLLQRPGQSPRRLIYLVSKLDSGVPDRFSGSGSGTDFTLKISRVEAEDVGVYYCAQGTHFPRTFGGGTKVEIKRTVAAPSVFIFPPSDEQLKSGTASVVCLLNNFYPREAKVQWKVDNALQSGNSQESVTEQDSKDSTYSLSSTLTLSKADYEKHKVYACEVTHQGLSSPVTKSFNRGEC
notes: formula 4
B2: no binding (human GIPR); no binding (human CCR8).

B3: F2-0G4S-1 (bispecific antibody)
heavy 1: not shown
light 1: DVVMTQTPLSLSVTPGQPASISCRSSQSLVHSQGNTYLYWYLQKPGQSPKLLIYKVSNRFSGVPDRFSGSGSGTDFTLKISRVEAEDVGVYYCSQSTHVPPLTFGQGTKLEIKRTVAAPSVFIFPPSDEQLKSGTASVVCLLNNFYPREAKVQWKVDNALQSGNSQESVTEQDSKDSTYSLSSTLTLSKADYEKHKVYACEVTHQGLSSPVTKSFNRGEC
heavy 2: not shown
light 2: not shown
notes: formula 2-0G4S
For B3, the “EC50 ratio (relative to JNJ-64407564), cytotoxic activity against NCI-H929” value (human GPRC5D) was 0.57, the “Lysis rate %, cytotoxic activity against NCI-H929” value (human GPRC5D) was 91.5% and the EC50 [1] was 0.392 nM. B3: no binding (human GIPR); no binding (human CCR8); no binding (tested: 0.003 nM-300 nM) [2]. B3: no binding (tested: 0.003 nM-300 nM) [3]; no binding (tested: 0.003 nM-300 nM) [4].

B4: F2-1 (bispecific antibody)
heavy 1: not shown
light 1: DVVMTQTPLSLSVTPGQPASISCRSSQSLVHSQGNTYLYWYLQKPGQSPKLLIYKVSNRFSGVPDRFSGSGSGTDFTLKISRVEAEDVGVYYCSQSTHVPPLTFGQGTKLEIKRTVAAPSVFIFPPSDEQLKSGTASVVCLLNNFYPREAKVQWKVDNALQSGNSQESVTEQDSKDSTYSLSSTLTLSKADYEKHKVYACEVTHQGLSSPVTKSFNRGEC
heavy 2: not shown
light 2: not shown
notes: formula 2
B4: no binding (human GIPR); no binding (human CCR8).
